Test results as given in article PMC4023160.

What was measured:
[1] = target: ClpP protease (UniProt P0A6G7); test: HDX-MS; BAP (100 pmol) with ClpP (200 pmol), 3 min at 30°C in low salt buffer A (50 mM Tris pH 7.5, 25 mM KCl, 20 mM MgCl2, 2 mM DTT) with ATPγS, diluted 20-fold into D2O buffer, 60 s exchange; mass of full length BAP
[2] = target: BAP (ClpB with the ClpA tripeptide for ClpP binding), wild type (E. coli | not stated); test: negative-stain EM single-particle reconstruction; BAP(HAP)-ClpP complexes formed in 20 mM Tris-HCl pH 7.5, 20 mM KCl, 15 mM MgCl2, 1 mM DTT, 2 mM ATPγS; stained with 2% uranyl acetate; side views of 2:2 complexes cut into 1:1 halves; sixfold symmetry imposed or none
[3] = target: ClpP protease (UniProt P0A6G7); test: as above
[4] = target: BAP Trap (E279A/E678A) variant (E. coli | not stated); test: cryo-EM structure; BAPtrap-ClpP and ClpB alone, vitrified, in the presence of ATPγS; side views only
[5] = target: BAP-E432A (repressed mutant) (E. coli | not stated); test: negative-stain EM single-particle reconstruction; BAP(HAP)-ClpP complexes formed in 20 mM Tris-HCl pH 7.5, 20 mM KCl, 15 mM MgCl2, 1 mM DTT, 2 mM ATPγS; stained with 2% uranyl acetate; side views of 2:2 complexes cut into 1:1 halves; sixfold symmetry imposed or none
[6] = target: HAP (Hsp104 with the ClpA tripeptide for ClpP binding) (S. cerevisiae); test: as above

Sequence of ClpP protease (P0A6G7 15-207): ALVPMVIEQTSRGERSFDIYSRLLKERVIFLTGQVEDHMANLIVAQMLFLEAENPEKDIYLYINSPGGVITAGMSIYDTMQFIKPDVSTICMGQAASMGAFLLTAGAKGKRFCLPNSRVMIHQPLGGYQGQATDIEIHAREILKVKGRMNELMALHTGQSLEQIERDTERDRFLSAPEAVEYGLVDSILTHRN

BAP (ClpB with the ClpA tripeptide for ClpP binding), wild type
amide protons in BAP protected from exchange by ClpP (amide protons) [1]: 30
stoichiometry N [2]: 6
stoichiometry N (BAP hexamers per ClpP double-heptamer) [3]: 2

BAP Trap (E279A/E678A) variant
stoichiometry N [4]: 6

BAP-E432A (repressed mutant)
stoichiometry N [5]: 6

HAP (Hsp104 with the ClpA tripeptide for ClpP binding)
stoichiometry N [6]: 6
